Measurements as given in the RNAGym collection of RNA variant scans (doi:10.1073/pnas.2313332121).

B1: TPR t1 (parent)
chain: GACCAAUCUGCCCUCAGAGCUCGAGAACAUCUUCGGAUGCAGAGGAGGCAGGCUUCGGUGGCGCGAUAGCGCCAACGUCCUCAACCUCCAAUGCAUCCCACCACAUGAUGAUGCCUGAAGAGCCUUGGUUUUUUG

Variants of: B1
Assay: polymerase ribozyme fitness, log enrichment relative to wild type (log ratio); higher = more active; in vitro selection for triplet polymerase activity
In short: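 PCR was used to build mutant libraries for each subunit of a heterodimeric triplet polymerase ribozyme, which were then transcribed. A single in vitro selection round, in triplicate, used a frozen incubation at −7 °C and recovered extended constructs by gel excision, streptavidin beads and RT-PCR. Fitness is the logarithm of genotype enrichment relative to wild-type enrichment, averaged over replicates with inverse-variance weights. The logarithm is base 2, and after Illumina sequencing only genotypes with ≥10 input reads and ≥1 read per output were kept.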

In order of rising “polymerase ribozyme fitness (log ratio)” value:
1. GACCAAUCUGCCCUCAGAGCUCGAGAACAUCUUUGGAUGCAGGGGAGGCAGGCUUCGGUGGCACUAUAGCGCCAACGUCCUCAACCUCCAAUGCAUCCCACCACAUGAUGAUGCCUGAAGAGCAUUGGUUUUUUG [C34U A43G G63A G65U C124A]  -6.99
2. GACCAAUCCGCCCUCAGAGCUCGAGAACAUCUUCUGAUGCAGAGGAGGCUGGCUUCGGUGGCGCGAUAGCGCCAACGUCCUCAACCUCCAAUGCAUCCCACCACAUGAUGAUGCCUGAAGAGCCUUGGUUUUUUG [U9C G35U A50U]  -6.01
3. GACCAAUCUGCCCUCAGAGCUCGAGAACAUCUUCGGAUGCAGAGGAGGCAGGCUUCGGUGGCGCGAUAGCGCCAACGUCCUCAACCUCCAAUGCAUCCCACCACAUGAUGAUGCCUCAAGAGUCUAGGUUUUUUG [G117C C123U U126A]  -5.9
4. GACCAAUCUGCCCUCAGAGCUCGAGAACAUCUUCGGAUGCAGAGGAGGCAGGCUUCGGUGCCGCGAUAGCGCCAACGGCCUCAACCUCCAAUGCAUCCCACCACAUGAUGUUGCCUGAAGAGCCUUGGUUAUUUG [G61C U78G A111U U131A]  -5.71
5. GACCAAUCUGGCCUCAGAGCUCGAGAACAUCAUCGGAUGCAGAGGUGGCAGGCUUCGGUGGCGCGAUAGCGCCAACGUCCUCAAACUCCAAUGCAUCCCACCACAUGAUGAUGCCUGAAGAGCCUGGGUUUUUUG [C11G U32A A46U C85A U126G]  -5.61
6. GACCAAUCUGCCCUCAGAGCUCGAGAACAUCUUCGGAUGCAGAGGAGGCAGGCUUCGGUGGCGCGAUAGCGCCAACGUCCUCUACCUCCAAUGCAUCCCACCACAUGUUGAUGCCUGAAGAGCCUUGGUUUUUUG [A83U A108U]  -5.5
7. GACCAAUCUGCUCUCAGAGCUCGAGAACAUCUUCGGAUGCAGAGUAGGCAGGCUUCGGUGGCGCGAUAGCGCCAACGUCCUGAACCUCCAAUGCAUGCCACCACAUGAUGAUGCCUGAAGAGCCUUGGUUUUUUG [C12U G45U C82G C97G]  -5.36
8. GACCAAUCUGCCCUCAGAGCUCGAGAACAUCUUCGGAUGCAGAGGAGGCAGGCUUCGGUCGCGGGAUAGCGCCAACGUCCUCAACCUCCGAUGCAUCCCACCACCUGAUGAUGCCUCAAGAGCCUUGAUUUUCGG [G60C C64G A90G A105C G117C G128A U133C U134G]  -4.98
9. GACUAAUCUGCCCUCAUAGCUCGAGAACAUCUUCGGAUGCAGAGGAGGCAGGCUUCGGUUGCGCGAUAGCGCCAACGUCCUCAACCUCAAAUGCAUCCCACCACAUGAUGAUGCCUGAAGAGCCUUGGUUUUUUG [C4U G17U G60U C89A]  -4.98
10. GACCAAUCUGCCCUCAGAGCUCGAGAACAUCUUCCGAUGCAGAGGAGGCAGGCUUCGGUGGCGCGAUAUCGCCAACGUGCUCAACCUCCAAUGCAUCCCACCACAUGAUGAUGCCUGAAGAGCCUUGGUAUUUUG [G35C G69U C79G U130A]  -4.92
11. GACCAAUCUGCCCUCAGAGCUGGAGAACAUCUUCGUAUGCAGAGGAGGCAGGCUUCGGUGGCGCGAUAGCGCCAACGUCCUCAACCUCCAAUGCAUCCCACCACAUGAUGAUGCCUGAAGAGCCUUGGUUUUUUG [C22G G36U]  -4.91
12. GACCAAUCUGCCCUAAGAGCUCGAGAACAUCUUCGGAUGCAGAGGAGCCAGCCUUCGGUGGCGCGAUAGCGCCAACGUCCUCAACCUCCAAUGCAUCCCACCACAUGAUGAUGCCUGAAGAGCCUUGGUUUUUUG [C15A G48C G52C]  -4.44
13. GACCAAUCUGGCCUCAGAGCUCGAGAACAUCUUCGGAUGCAGAGGAGGCAGGCUUCGGUGGCGCGAUAGCGCCAACGUCCUCAACCUCCAAUGCAUCCCACCACAUAAUGAUGCCUGAAGAGCCUUGGUUUUUUG [C11G G107A]  -4.44
14. GACCACUCUGCCUUCAGAGCUCGAGAUCAUCUUCGGAUGCAGAGGAGGCAGGCUUCGGUGGAGCGAUAGCGCCAACGUCCUAAACCUCCAAUGCAUCCCACCACAUGAUGAUGCCUGAAGAGCCUUGGUUUUUUG [A6C C13U A27U C62A C82A]  -4.43
15. GACCAAUCUGCCCUCAGAGCUCGAGAACAUCUUCGGAUGCAGAGGAGGCAGGCUUCGGUGGCGUGAUAGCGCCAACGUCCUCAACCUCCAAUGCAUCCCACCACAUGAUGAUGGAUGAAGAGGAUUGGUUUUUUG [C64U C114G C115A C123G C124A]  -4.37
16. GACCAAUCUGCCCUCAGAGCUCGAGAACAUCUUCGGAUGCAGAGGAGGCAGGCUUCGGUGGCGCGAUAGCGCCAACGUCCUCAACCUCCAAUGCAUGCCACCACAUGAUGCUGCCUGAAGAGCCUUGGUUUUUUG [C97G A111C]  -4.02
17. GACCAAUCUGCCCUCAGAGCUCGAGAAUAUCUUCGGAUGCAGAGGAGGCAGGCUUCGGUGGCGCGAUAGCGCCAACGUCCUCAACCUCCAAUGCAUCCCACCACAUGAUGAUCCCUGAAGAGGCUUGGUUUUUUG [C28U G113C C123G]  -3.9
18. GACCAAUCUGCCCUCAGAGCUCGAGAACAUCUUCAGAUGCAGAGGAGGCAGGCUUCGGUGGCGCGAUAGCGCCAACGUCCUCAACCUCCAAUGCAUCCCACCACAUGAUGAUGCCUGAAGAGACUUGGUUUUUUG [G35A C123A]  -3.41
19. GACCACUCUGCCCUCAGAGCUCGAGAACAUCUUCGGGUGCAGAGGACGCAGGCUUCGGUGGCGUGAUAGCGCCAACGUCCUCAACCACCAAUGCAUCCCACCACAUGAUGAUGCCUGAACAGCGUUGGUUUUUUG [A6C A37G G47C C64U U87A G120C C124G]  -2.79
20. GACCAAUCUGCCCUCAGAGCUCGAGAUCAUCUUCGGAUGCAGAGGAGGCAGGCUUCGGUGGCGUGAUAGCGCCAACGUCCUCAACCUCCAAUGCAUCCCACCACAUGAUGAUGCCUGAAGAGCCUUGGUUUUUUG [A27U C64U]  -2.76
21. GACCAAUCUGCCCUCAGAGCUCGAGAACAUCUUCGGAUGCAGAGGAGGCAGGCUUCGGUGCCGCGAUAGCGCCAACGUCCUCAACCUCCAAUGCAUCCCACCACAUGAUGAUGCCUGAAGAGCCUUGGUUUUUUU [G61C G135U]  -2.53
22. GACCAAUCUGCCCUCAGAGCUCGAGAACAUCUUCGGAUGCAGAGGAGGCUGGCUUCGGUGGCGCGAUAGCGCCAACGUCCUCAACCUCCAAUGCAUCCCACCACAUGAUGAUGCCUGAAGAGCCGUGGCUUUUUG [A50U U125G U129C]  -2.41
23. GACCAAUGUGCCCUCAGAGCUCGAGAACAUCUUCGGAUGCAGAGGAGGCAGGCUUCGGUGGCGCGAUAGCGCCAAUGUCCUGAACCUCCAAUACAUCCCACCACAUGAUGAUGCCCGAAGAGCCUUGGUUUUUUG [C8G C76U C82G G93A U116C]  -2.26
24. GACCAAUCUGCCCUCAGAGCUCGAGAACAUCUUCGGCUGCAGAGGAGGCAGGGUUCGGUGGCGCGAUAGCCCCAACGUCCUUAACCUCCAAUGCAUCCCAACACAUGAUGAUGCCUGAUGAGCCUUGGUUUUUUG [A37C C53G G71C C82U C101A A119U]  -2
25. GACCAAUCUGCCCUAAGAGCUCGAGAACAUCUUCGGAUGCAGAGGAGGCAGGCUUCGGUGGCGCGAUAGCGCCAACGUCCUCAACCUCCAAUGCAUCCCACCACAUGAUGAUGCCUGAAGAGCCUUGGUUUUUUG [C15A]  -1.85
26. GACCAAUUUGCCCUCAGAGCUCGAGAACUUCUUCGGAUGCAGAGGAGGCAGGCUUCGGUGGCGCGAUAGCGACAACGUCCUCAACCUCCAAUGCAUCCCACCACAUGAUGAUGCCUGAAGAGCCUUGGUUUUUUG [C8U A29U C72A]  -1.79
27. GACCAAUCUGCCCUCAGAGCUCGAGAACAUCUUCGGAUGCAGAGAAGGCAGGCUGCGGUGGCGCGAUAGCGCCAACAUCCUCAACCUCCAAUGCAUCCCACCACAUGAUGAUGCCUGAAGAGCCUUGGUUUUUUG [G45A U55G G77A]  -1.78
28. GACCAAUCUGCCCUCAGAGCUCGAGAACAUCUUCGGAUGCAGAGGAGGCAGGCUUAGGUGGCGCGAUAGCGCCAACGUCCUCAACCUCCAAUGCAUCCCACCACAUGAUGAUGCCUGAAGAGCCUUGGUUUUUUU [C56A G135U]  -1.7
29. GACCAAUCUGCCCUCAGAGCUCGAGAACAUCUUCGGAUGCAGAGGAGGCAGGCUUCGGUGGCGCGAUAGCGCCAACGUCCUCAACCUCCAAUCAAUCCCACCACAUGAUGAUGCCUGAAGAGCCUUGGUUUUUUG [G93C C94A]  -1.68
30. GACCAAUCUGCGCUCAGAGCUCGAGAACAUCUUCGGAUGCAGUGGAGGCAGGCUUCGGUGACGCGAUAGCGCCAACGUCCUCAUCCUCCAAUGCAUCCCACCACAUGAUGAUGCCUGAAGAGCCUUGGUUUUUUG [C12G A43U G61A A84U]  -1.52
31. GACCAAUCUGCCCUCAGAGCUCGAGAACAUCUUCGGAUGCAGAGGAGGCAGGCUUCGGUGGCGCGAUAGCGCCAACGUACUCAACCUCCAAUACAUCCCACCACAUGAUGAUGCCUGAAGAGCCUUGGUUUUUUG [C79A G93A]  -1.37
32. GACCAAUCUGCCCUCAGAGCUCGAGAACAUCUUCGGAUGCAGUGGAGGCAGGCUUCGGUGGCGCGAUAGCGCCAACGUCCUCAACCUCCAAUGCAUCCCACCACAUGAUGAUGCCUGUAGAGCCUUGGUUUUUUG [A43U A118U]  -1.23
33. GACCAAUUUGCCCUCAGAGCUCGAGAACAUCUUCGGAUGCAGAGGAGGCAGGCUUCGGUGGCGCGAUAGCGCCAACGUCCUCAACAUCCAAUGCAUCCCACCACAUGAUGAUGCCUGAAGAGCCUUGGUUUUUUG [C8U C86A]  -1.13
34. GACCAAUCUGCAGUCAGAGCUCGAGAACAUCUUCGGAUGCAGAGGAGGCAGGCUUCGGUGGCGCGAUAGCGCCAACGUCCUCAACCUCCAAUGCAUCCCACCACAUGAUGAUGCCUGAAGAGCCUUGGUUUUUUG [C12A C13G]  -0.617
35. GACCAAUCUGCCCUCAGAGCUCGAGAACAUCUUCGGAUGCAGAUGAGGCAGGCUUUGGUGGCGCGAUAGCGCCAACGUCCUCAACCUCCAAUGCAUCCCACCACAUGAUGAUGCCUGAAGAGCCUUGGUUUUUUG [G44U C56U]  -0.616
36. GACCAAUGUGCCCUCAGAGCUCGAGAACAUCUUCGGAUGCAGAGGUGGCAGGCUUCGGUGGCGCGAUAGCGCCAACGUCCUCAACCUCCAAUGCAUCCCACCACAUGAUGAUGCCUGAAGAGCCUUGGUUUUUUG [C8G A46U]  -0.191
37. GACCAAUCUGCCCUCAGAGCUCGAGAACAUCUUCGGAUGCAGAGGAGGUAGGCUUCGGUGACGCGAUAGCGCCAACGUCCUCAACCUCCAAUGCAUCCCACCACAUGAUGAUGCCUGAAGAGCCUUGGUUUUUUG [C49U G61A]  -0.0564
38. GACCAAUCUGCCCUCAGAGCUCGAGAACAUCUUCGGAUGCAGAGGAGGCAGGCUUCGGUGGCGCGAUAUCGCCAACGUCCUCAACCUCCAAUGCAUCCCACCACAUGAUAAUGCCUGAAGAGCCUUGGUUUUUUG [G69U G110A]  0.0569
39. GACCAAUCUGCCCUCAGAGCUCGAGAACAUCUUCGGAUGCAGAGGAGGCAGGCUUCGGUGGCGCGAUAGCGCAAACGUCCUCAACCUCCAAUGCAUCCCACCACAUGAUGAUGCCUGAAGAGCCUUGGUUUUAUG [C73A U133A]  0.106
40. GACCAAUCUGCCCUCAGAGCUCGAGAACAUCUUCGGAUGCAGAGGAGGCAGGCUUCGGUGGCGCGAUAGCGCCAACGUCCUCAACGUCCAAUGCAUCCCACCACAUGAUGAUGCCUGAACAGCCUUGGUUUUUUG [C86G G120C]  0.661
41. GACCAAUCUGCCGUCAGAGCUCGAGAACAUCUUCGGAUGCAGAGGAGGCAGGCUUCGGUGGCGCGAUAGCGCCAACGUCCUCAACCUCCAAUGCGUCCCACCACAUGAUGACGCCUGAAGAGCUUUGGUUUUUUG [C13G A95G U112C C124U]  1.05
42. GACCAAUCUGCCCUCAGAGCUCGAGAACAUCUUCGGAUGCAGAGGAGGCAGGCUUCGGUGGCGCGAUAGCGCCAACGUCCUCAACCUCUGAUGCAUCCCACCACAUGAUGAAGCCUGAAGAGGCUUGGUUUUUUG [C89U A90G U112A C123G]  1.96
